B1: HDV Ribozyme (parent)
chain: GGCCGGCAUGGUCCCAGCCUCCUCGCUGGCGCCGGCUGGGCAACAUUCCGAGGGGACCGUCCCCUCGGUAAUGGCGAAUGGGACCCA

This data set covers variants of B1. Briefly: self-cleavage, relative activity (ratio to wild type); higher = more cleavage; co-transcriptional.
With C64A G80U, the self-cleavage is 0.294.
Take C64A G80C: the self-cleavage came out at 0.125.
For C61U G68A, the self-cleavage worked out at 0.727.
With C64U C86A, the self-cleavage amounted to 0.66.
U65C C66U: the self-cleavage came to 1.04.
Regarding C63U A71U, the self-cleavage came to 1.02.
As to C63U A71G, the self-cleavage was found to be 1.03.
Turning to U65G C86U, the self-cleavage came to 0.966.
For the variant U60G U65C, the self-cleavage came to 1.17.
Take U60G U65A: the self-cleavage was 0.95.
Turning to C61A C75A, the self-cleavage was 0.136.
With C63A A83C, the self-cleavage stood at 0.271.
Consider C63A A71C, for which the self-cleavage came out at 0.525.
Take C64A G76U: the self-cleavage was determined as 0.858.
Take C64A G76C: the self-cleavage was 0.95.
Consider C64A G76A, for which the self-cleavage came out at 0.997.
Regarding C64G G74A, the self-cleavage is 0.17.
Take C64G C84A: the self-cleavage is 0.718.
On to C64G C84U, for which the self-cleavage came out at 0.831.
Take U65G A78U: the self-cleavage amounted to 0.569.
For the variant C61G C84U, the self-cleavage came out at 0.544.
Next, C61G C84G: 0.386.
In the case of C62G U65A, the self-cleavage was determined as 0.166.
As to C64G U65A, the self-cleavage was 0.799.
As for C61U A83U, the self-cleavage was 0.456.
On to U60G G76U, for which the self-cleavage turned out to be 0.969.
The value for U60C C63A was 1.04; that for U65A A77U was 0.72; that for C63G C64G was 0.692.
Take U60C G73C: the self-cleavage amounted to 0.465.
For the variant U60C G73U, the self-cleavage was 0.352.
Regarding U60A G74A, the self-cleavage was determined as 0.422.
C62A G82C: the self-cleavage was determined as 0.271.
Take C62A G82U: the self-cleavage came out at 0.295.
Take C63G G74U: the self-cleavage came out at 0.529.
As for C66A A78C, the self-cleavage came to 0.142.
Next, U60C G80C: 0.125.
As to C61A A83C, the self-cleavage stood at 0.342.
The value for C61G U65C was 1.24; that for C63G G73A was 0.424; that for C62G U79C was 0.529.
Turning to C63U A70C, the self-cleavage was determined as 1.07.
Next, C63G G68C: 0.232.
Consider C62G G82C, for which the self-cleavage is 0.204.
As for U60G C61G, the self-cleavage turned out to be 0.872.
U60G U72A: the self-cleavage was 0.458.
As for C61A G68U, the self-cleavage is 0.623.
On to C61U U79G, for which the self-cleavage was found to be 1.15.
As for C62G A77U, the self-cleavage is 0.388.
Consider C61A C86U, for which the self-cleavage was determined as 1.01.
Take C61A C86A: the self-cleavage is 0.897.
The value for C62A G73U was 0.212; that for C64A A83G was 0.857; that for C61G G68C was 0.665.
The value for C63G A71C was 0.782.
The value for U65A G82U was 0.217; that for C62A U65A was 0.332; that for C62A U65C was 0.969.
Consider C63A C64A, for which the self-cleavage was found to be 0.665.
Consider C64A G67U, for which the self-cleavage amounted to 0.425.
Take C63G A87U: the self-cleavage was determined as 0.71.
The value for U65G C66A was 0.9; that for U65A A78G was 0.831; that for C63A U79G was 0.682.
Regarding C63U C66G, the self-cleavage stood at 0.88.
Consider C62G C64A, for which the self-cleavage amounted to 0.608.
For C62G C64G, the self-cleavage was determined as 0.427.
On to C62G C64U, for which the self-cleavage is 0.485.
On to C64U A83G, for which the self-cleavage came out at 1.02.
In the case of C62U A70G, the self-cleavage was 1.09.
For the variant C62A A70G, the self-cleavage came to 0.682.
Consider C62A A70C, for which the self-cleavage amounted to 0.886.
For the variant U60G U69C, the self-cleavage came to 1.09.
Consider C64U A77U, for which the self-cleavage was found to be 0.674.
As to C64U A77C, the self-cleavage amounted to 0.318.
On to C64U A87U, for which the self-cleavage came to 0.804.
The value for C62A C85G was 0.88; that for C63U A77U was 0.698.
Take C63U A77G: the self-cleavage was determined as 0.882.
In the case of C64G U79G, the self-cleavage stood at 0.506.
Next, C64G U79A: 0.692.
Regarding C61G A78G, the self-cleavage is 0.831.
Turning to C62U G68C, the self-cleavage was 0.818.
With C62U G68U, the self-cleavage is 0.68.
For the variant U60A U79G, the self-cleavage came out at 0.807.
In the case of C63G U69G, the self-cleavage came to 0.731.
With C63G U69C, the self-cleavage was found to be 0.567.
Regarding C63A C84U, the self-cleavage was 0.717.
For C64A A77U, the self-cleavage came out at 0.449.
Next, C64A A77G: 0.703; U60C A71G: 0.886.
As to U65A G76C, the self-cleavage is 1.11.
With C64G U72G, the self-cleavage was 0.745.
The value for C61G A71C was 0.787; that for C61G G73A was 0.475.
U65G A87U: the self-cleavage came out at 1.12.
The value for C63G C75U was 0.154; that for C66A C85U was 0.985; that for U65C C85U was 0.997.
On to U65C C85G, for which the self-cleavage was determined as 0.807.
Next, U65A G74U: 0.428.
The value for U65G G80U was 0.261; that for C61G U69C was 0.96.
Next, C61G C62A: 0.958; C61G C62U: 0.815.
U60G G67U: the self-cleavage amounted to 1.07.
As to U65A U79G, the self-cleavage is 0.492.
For U65A U79C, the self-cleavage was determined as 0.467.
With U65G G68U, the self-cleavage is 0.491.
With U65G G68C, the self-cleavage worked out at 0.673.
On to U65A C84U, for which the self-cleavage worked out at 0.799.
With C62G A83G, the self-cleavage is 0.404.
C62G A83U: the self-cleavage worked out at 0.17.
Regarding U65C G80A, the self-cleavage is 0.356.
As to C63U C85G, the self-cleavage is 0.959.
Next, U60C C66U: 0.997; C64U G74U: 0.569.
Next, C64U G74C: 0.128.
With C61A G74C, the self-cleavage turned out to be 0.315.
C61G G76U: the self-cleavage was found to be 1.16.
Turning to U65G U72G, the self-cleavage worked out at 0.748.
Turning to C63G, the self-cleavage stood at 0.764.
On to C63A, for which the self-cleavage stood at 0.973.
With C63U, the self-cleavage is 1.
Turning to C64G A78G, the self-cleavage turned out to be 0.527.
For the variant C64G A78C, the self-cleavage was found to be 0.269.
As for C62A C66U, the self-cleavage is 0.597.
Next, C62U U79A: 0.95.
For the variant U65C U72A, the self-cleavage was found to be 0.665.
As for U65C U72C, the self-cleavage turned out to be 0.609.
The value for C61U A87U was 0.959; that for C62A G81U was 0.266.
In the case of C63U G73C, the self-cleavage was determined as 0.618.
Turning to C64G G73U, the self-cleavage was 0.172.
As for C64G G73C, the self-cleavage was determined as 0.324.
Consider C63A A70C, for which the self-cleavage amounted to 0.883.
For the variant C63A A70U, the self-cleavage was found to be 0.812.
With C63A A70G, the self-cleavage worked out at 0.767.
Turning to U60A U65A, the self-cleavage is 0.831.
Turning to C66A A71U, the self-cleavage is 0.692.
Consider C62A G68U, for which the self-cleavage was 0.939.
The value for C62A G68A was 0.842.
For C61A C85A, the self-cleavage was 1.09.
On to C61A C85U, for which the self-cleavage was found to be 1.05.
Next, C62U U69C: 1.07.
Take C64G G76A: the self-cleavage was determined as 0.862.
In the case of C63G G80A, the self-cleavage stood at 0.366.
As to U65G A77G, the self-cleavage came out at 0.831.
As to C62G G80C, the self-cleavage came out at 0.0791.
Regarding C63U G74U, the self-cleavage turned out to be 0.583.
The value for C64U A71G was 1.07.
The value for C64U A71U was 1.12; that for C64G A70U was 0.978.
As for C63U A83G, the self-cleavage worked out at 0.653.
As to C63U A83C, the self-cleavage was 0.502.
With U60G G73C, the self-cleavage was determined as 0.323.
Take U60G G73U: the self-cleavage worked out at 0.298.
With U65A U72C, the self-cleavage came out at 0.511.
Turning to U60C G74C, the self-cleavage stood at 0.217.
Consider C61U C64G, for which the self-cleavage came to 0.308.
In the case of C61A U72C, the self-cleavage was 0.686.
As for C61A U72G, the self-cleavage worked out at 0.554.
Consider C61G A83G, for which the self-cleavage was 0.567.
The value for U65C U69C was 1.02.
With U65A C75A, the self-cleavage turned out to be 0.185.
For the variant C63A G80U, the self-cleavage amounted to 0.2.
C63A A77G: the self-cleavage was 0.734.

For the origin of these results see the RNAGym collection of RNA variant scans (doi:10.7554/elife.80360).
